Experiment [1] has as its system CD4 and CD8 T cells (PBMC) cultured with CD39-expressing SK-MEL-5 melanoma cells. Put plainly: Inhibition of melanoma cell-mediated suppression: proliferation of CFSE-labelled T cells co-cultured with irradiated SK-MEL-5. The conditions noted are these: CFSE-labelled PBMC + irradiated SK-MEL-5, 5 days, BY40 5 μg/mL, POM-1 100 or 250 μM, flow cytometry; for CD4 T cell proliferation: FIG. 4A; for CD8 T cell proliferation: FIG. 4B. In kind it is cell-based, human. As for the experimental part: FIG. 4: CD39 antibody (BY40) restores T cell responses against melanoma cells. 5×10^4 CFSE-labelled PBMC were cultured in the presence of 5×10^3 irradiated (100 Gy) SK-MEL-5 (NT). POM-1 (100 or 250 μM), BY40 or control isotype antibody D6212 (5 μg/mL) were added at the beginning of the culture and after 2 days of culture. After 5 days of culture, proliferation of CFSE-labelled CD4 (A) and CD8 (B) T cells was analysed by flow cytometry. Experiment was performed in duplicate and results are representative of 2 independent experiments.
5×10^4 CFSE-labelled PBMC were cultured in the presence of 5×10^3 irradiated (100 Gy) SK-MEL-5 (NT). POM-1 (100 or 250 μM), BY40 or control isotype antibody D6212 (5 μg/mL) were added at the beginning of the culture and after 2 days of culture. After 5 days of culture, proliferation of CFSE-labelled CD4 (A) and CD8 (B) T cells was analysed by flow cytometry. Experiment was performed in duplicate and results are representative of 2 independent experiments.

The target of experiment [2] is T1, CD39 ATPase activity of lymphoma cells (Ramos) (Homo sapiens, UniProt P49961).
T1 construct: BL41, B104 and Ramos express CD39 at their cell surface; endogenous in cells; host or cells: Ramos Burkitt lymphoma cells
T1 sequence (P49961 1-510): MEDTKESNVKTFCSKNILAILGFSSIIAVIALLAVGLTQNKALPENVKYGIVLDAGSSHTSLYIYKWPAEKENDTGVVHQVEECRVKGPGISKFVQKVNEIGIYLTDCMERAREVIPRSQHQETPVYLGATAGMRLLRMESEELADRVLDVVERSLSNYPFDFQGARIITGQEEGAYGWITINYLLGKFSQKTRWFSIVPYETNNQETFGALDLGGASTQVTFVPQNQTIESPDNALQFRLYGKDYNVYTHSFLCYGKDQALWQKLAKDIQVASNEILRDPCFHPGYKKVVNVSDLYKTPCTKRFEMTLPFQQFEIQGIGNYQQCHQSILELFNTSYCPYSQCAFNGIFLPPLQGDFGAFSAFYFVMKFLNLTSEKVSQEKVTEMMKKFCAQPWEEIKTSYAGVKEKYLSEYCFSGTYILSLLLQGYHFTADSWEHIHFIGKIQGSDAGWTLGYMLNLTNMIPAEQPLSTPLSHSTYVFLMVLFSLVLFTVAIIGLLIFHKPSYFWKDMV
Put plainly: Inhibition of lymphoma-CD39 enzymatic (ATPase) activity, phosphate release measured with Malachite green. In kind it is cell-based. Particulars: Ramos cells cultured with increasing doses of mAb for 16 h, then 100 μM ATP for 15 min; FIG. 7. As for the experimental part: (§1) FIG. 7: CD39 antibodies inhibit CD39 ATPase activity of lymphoma cells. 1×10^5 lymphoma cells (Ramos) were cultured in complete RPMI medium alone or in presence of BA54g, BY12 or BY40 mAbs, at the indicated concentrations, for 16 h. Cells were then washed three times in phosphate free buffer (10 mM glucose, 20 mM Hepes, 5 mM KCl, 120 mM NaCl, 2 mM CaCl2) and resuspended in the same buffer supplemented with 100 μM ATP for 15 min. Phosphate concentration in supernatants was measured after addition of Malachite green/polyvinylalcohol /ammonium mobylate solution for 20 min by a spectrophotometer at 620 nm and compared against a standard curve. Results are the mean of two independent experiments.
as §1, with “1×10^5” for “FIG. 7: CD39 antibodies inhibit CD39 ATPase activity of lymphoma cells. 1×10^5”, “KC1,” for “KCl,”

Experiment [3] concerns the target T2, CD39 ATPase activity of melanoma cells (SK-MEL-5) (Homo sapiens, UniProt P49961).
T2 construct: SK-MEL-5 and SK-MEL-28 cell lines display membranous expression of CD39; endogenous in cells; host or cells: SK-MEL-5 melanoma cells
T2 sequence (P49961 1-510): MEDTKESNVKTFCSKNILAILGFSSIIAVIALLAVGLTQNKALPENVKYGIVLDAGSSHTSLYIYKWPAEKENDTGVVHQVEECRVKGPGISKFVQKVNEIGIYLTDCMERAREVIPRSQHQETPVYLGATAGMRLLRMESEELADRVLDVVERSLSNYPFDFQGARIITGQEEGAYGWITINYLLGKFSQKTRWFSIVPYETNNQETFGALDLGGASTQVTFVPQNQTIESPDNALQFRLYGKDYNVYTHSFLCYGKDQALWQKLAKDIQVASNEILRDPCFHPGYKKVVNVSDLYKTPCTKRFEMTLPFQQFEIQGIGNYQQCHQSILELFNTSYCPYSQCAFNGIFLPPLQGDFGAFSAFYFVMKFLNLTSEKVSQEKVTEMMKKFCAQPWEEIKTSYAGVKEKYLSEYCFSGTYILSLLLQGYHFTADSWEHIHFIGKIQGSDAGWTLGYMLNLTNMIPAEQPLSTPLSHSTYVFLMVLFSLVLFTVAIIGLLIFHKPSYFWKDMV
Description: Inhibition of melanoma-CD39 enzymatic (ATPase) activity, phosphate release measured with Malachite green. In kind it is cell-based. The conditions noted are these: SK-MEL-5 cells cultured with mAb for 16 h, then 100 μM ATP for 15 min; FIG. 3. As for the experimental part: FIG. 3: CD39 (BA54g) antibody inhibits CD39 ATPase activity of melanoma cells. 1×10^5 melanoma cells (SK-MEL-5) were cultured in complete RPMI medium alone or in presence of BA54g mAb for 16 h. Cells were then washed three times in phosphate free buffer (10 mM glucose, 20 mM Hepes, 5 mM KCl, 120 mM NaCl, 2 mM CaCl2) and resuspended in the same buffer supplemented with 100 μM ATP for 15 min. Phosphate concentration in supernatants was measured after addition of Malachite green/polyvinylalcohol/ammonium mobylate solution for 20 min by a spectrophotometer at 620 nm and compared against a standard curve. Experiment was performed in triplicate.
Protocol: 1×10^5 melanoma cells (SK-MEL-5) were cultured in complete RPMI medium alone or in presence of BA54g mAb for 16 h. Cells were then washed three times in phosphate free buffer (10 mM glucose, 20 mM Hepes, 5 mM KCl, 120 mM NaCl, 2 mM CaCl2) and resuspended in the same buffer supplemented with 100 μM ATP for 15 min Phosphate concentration in supernatants was measured after addition of Malachite green/polyvinylalcohol/ammonium mobylate solution for 20 min by a spectrophotometer at 620 nm and compared against a standard curve. Experiment was performed in triplicate.

On to `[Na+].[Na+].[Na+].[Na+].[Na+].[Na+].[O]=[W](=[O])([O-])[O-].[O]=[W](=[O])([O-])[O-].[O]=[W](=[O])([O-])[O-].[O]=[W](=[O])=[O].[O]=[W](=[O])=[O].[O]=[W](=[O])=[O].[O]=[W](=[O])=[O].[O]=[W](=[O])=[O].[O]=[W](=[O])=[O].[O]=[W](=[O])=[O].[O]=[W](=[O])=[O].[O]=[W](=[O])=[O]` [POM-1, sodium metatungstate, reference compound], for which, in experiment [1], the “CD4 T cell proliferation” value was “increased” and the “CD8 T cell proliferation” value is recorded as “increased”.

B1: BY40: murine CD39 antibody from hybridoma CNCM I-3889; VH SEQ ID NO: 1, VL SEQ ID NO: 5 (antibody, listed as Mus musculus)
VH: TRVKKPRETVKISCKASGYTFTHYGMNWVKQAPGKGLKWMGWINTYTGEPTYADDFKGRFAFSLEASVSTAYLQINNLKNEDTATYFCARRRYEGNYVFYYFDYWGQGTTLTVSSAKTTPPSVYPLAPGSAAQTNSMVTLGCLVKGYFPEQVTVTWNSGSLSSGVHTFPAVLQSDLYTLSSSVTVPS
light: DIQMTQSPASLSASVGETVTITCRASENIYSYFSWYQQKQGKSPQLLVYTAKTLAEGVPSRFSGSGSGTQFSLKINSLQPEDFGSYYCQHHYVTPYTFGGGTKLEIKRADAAPTVSIFPPSSEQLTSGGASVVCFLNNFYPKDINVKWKIDGSERQNGVLNSWTD
Take B1: in experiment [2], the “CD39 activity of lymphoma cells” value is reported as “inhibited CD39 activity in a dose dependant manner”. For the same molecule, in experiment [1], the “CD4 T cell proliferation” value is recorded as “increased” and the “CD8 T cell proliferation” value is on record as “increased”.

B2: BA54g: CD39 monoclonal antibody from hybridoma CNCM I-4171; VH SEQ ID NO: 11, VL SEQ ID NO: 15 (antibody, listed as Mus musculus, V domains shown)
VH: DVQLVESGGGLVQPGGSRKLSCAASGFTFSSFGMHWVRQAPEKGLEWVAYISSGSSIIYYADTVKGRFTISRDNPKNTLFLQMTSLGSEDTAMYYCARWSTTVVATDYWGQGTTLTVS
VL: NIVMTQSPKSMSMSVGERVTLTCKASENVVTYVSWYQQKPEQSPKLLIYGASNRYTGVPDRFTGSGSATDFTLTISSVQAEDLADYHCGQGYSYPYTFGGGTKLEIKR
With B2, in experiment [2], the “CD39 activity of lymphoma cells” value was “inhibited CD39 activity in a dose dependant manner”. In experiment [3], the “CD39 enzymatic activity of melanoma cells” value was “inhibits CD39 enzymatic activity in a dose dependant manner”.

The record behind these values is patent US20130273062A1, “ANTIBODIES AGAINST HUMAN CD39 AND USE THEREOF” (OREGA BIOTECH, priority 2010, published 2013).
